The test addresses NP binding epitope peptide of human Influenza B, residues 31-43 of Nucleoprotein (…) (Influenza B virus (strain B/Lee/1940)). The test can be described thus: ELISA on overlapping peptides of NP (strain B/Lee/1940). (An ELISA detects its analyte on a solid surface through an enzyme-linked reagent.)

In turn, “Acris mAb 3IF18-InB12, clone InB12 (murine anti-Influenza B nucleoprotein monoclonal antibody)” returned an OD492 nm greater than 0.4 OD492 nm.

Take “GenWay mAb GWB-T00595, clone B265M (murine anti-Influenza B nucleoprotein monoclonal antibody)”: the OD492 nm is greater than 0.4 OD492 nm.

Values taken from patent US20210247395A1.
